target: T1, His-tagged human GPC3 (human, UniProt P51654 25-559, limits assumed); assay: binding assay not named for this figure; human GPC3 per legend paragraph 61
T1 construct: Captured on HIS1K sensors in the Octet assay; also called human GPC3 antigen; Glypican 3; not shown: His tag
T1 sequence (P51654 25-559 limits assumed): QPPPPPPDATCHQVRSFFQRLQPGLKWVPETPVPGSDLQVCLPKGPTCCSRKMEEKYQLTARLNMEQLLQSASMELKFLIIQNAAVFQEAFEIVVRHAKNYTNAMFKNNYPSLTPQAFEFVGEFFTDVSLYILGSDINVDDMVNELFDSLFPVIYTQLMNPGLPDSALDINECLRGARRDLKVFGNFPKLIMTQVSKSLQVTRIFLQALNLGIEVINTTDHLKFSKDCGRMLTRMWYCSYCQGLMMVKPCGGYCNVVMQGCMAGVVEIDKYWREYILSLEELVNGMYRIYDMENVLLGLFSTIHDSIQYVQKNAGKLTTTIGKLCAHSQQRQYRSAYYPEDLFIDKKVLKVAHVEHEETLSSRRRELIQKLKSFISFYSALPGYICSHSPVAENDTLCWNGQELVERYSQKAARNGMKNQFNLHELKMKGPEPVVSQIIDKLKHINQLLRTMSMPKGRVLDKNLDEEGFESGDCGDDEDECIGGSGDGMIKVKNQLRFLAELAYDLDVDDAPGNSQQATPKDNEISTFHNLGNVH

| Binder | Kd [nM] |
| --- | --- |
| GPC3-A variable heavy variant H1.1 (D52E) with L1 (antibody, V domains shown, pairing with L1 follows from the library being made on humanized GPC3-A and from pair c) of claim 53; also called [GPC3]H1.1_L1) VH: QVQLVQSGAEVKKPGASVKVSCKASGYTFTDYEMHWVRQAPGQGLEWMGALEPKTGDTAYSQKFQGRVTMTADKSISTAYMELSRLRSDDTAVYYCTRFYSYTYWGQGTLVTVSS VL: DVVMTQSPLSLPVTLGQPASISCRSSQSLVHSNGNTYLHWYQQRPGQSPRLLIYKVSNRFSGVPDRFSGSGSGTDFTLKISRVEAEDVGVYFCSQNTHVPPTFGSGTKLEIK | 3.92 |
| XENP 23064 H1_L1.1 (antibody, human IgG1, kappa, V domains shown, VH WT, VL mutation (Kabat) N28Q; also called [GPC3]H1_L1.1; VL N28Q; copies: 2 + 2) VH: QVQLVQSGAEVKKPGASVKVSCKASGYTFTDYEMHWVRQAPGQGLEWMGALDPKTGDTAYSQKFQGRVTMTADKSISTAYMELSRLRSDDTAVYYCTRFYSYTYWGQGTLVTVSS VL: DVVMTQSPLSLPVTLGQPASISCRSSQSLVHSQGNTYLHWYQQRPGQSPRLLIYKVSNRFSGVPDRFSGSGSGTDFTLKISRVEAEDVGVYFCSQNTHVPPTFGSGTKLEIKR | 28.2 |
| GPC3-A variable light variant L1.6 (G29T) with H1 (antibody, V domains shown, pairing with H1 follows from the library being made on humanized GPC3-A and from pair l) of claim 53; also called [GPC3]H1_L1.6) VH: QVQLVQSGAEVKKPGASVKVSCKASGYTFTDYEMHWVRQAPGQGLEWMGALDPKTGDTAYSQKFQGRVTMTADKSISTAYMELSRLRSDDTAVYYCTRFYSYTYWGQGTLVTVSS VL: DVVMTQSPLSLPVTLGQPASISCRSSQSLVHSNTNTYLHWYQQRPGQSPRLLIYKVSNRFSGVPDRFSGSGSGTDFTLKISRVEAEDVGVYFCSQNTHVPPTFGSGTKLEIKR | 2.85 |
| humanized GPC3-A H1_L1 (antibody, V domains shown, also called [GPC3]H1_L1) VH: QVQLVQSGAEVKKPGASVKVSCKASGYTFTDYEMHWVRQAPGQGLEWMGALDPKTGDTAYSQKFQGRVTMTADKSISTAYMELSRLRSDDTAVYYCTRFYSYTYWGQGTLVTVSS VL: DVVMTQSPLSLPVTLGQPASISCRSSQSLVHSNGNTYLHWYQQRPGQSPRLLIYKVSNRFSGVPDRFSGSGSGTDFTLKISRVEAEDVGVYFCSQNTHVPPTFGSGTKLEIK | 3.17 |
| XENP 23073 H1_L1.10 (antibody, human IgG1, kappa, V domains shown, VH WT, VL mutation (Kabat) N30H; also called [GPC3]H1_L1.10; VL N30H; copies: 2 + 2) VH: QVQLVQSGAEVKKPGASVKVSCKASGYTFTDYEMHWVRQAPGQGLEWMGALDPKTGDTAYSQKFQGRVTMTADKSISTAYMELSRLRSDDTAVYYCTRFYSYTYWGQGTLVTVSS VL: DVVMTQSPLSLPVTLGQPASISCRSSQSLVHSNGHTYLHWYQQRPGQSPRLLIYKVSNRFSGVPDRFSGSGSGTDFTLKISRVEAEDVGVYFCSQNTHVPPTFGSGTKLEIKR | 3.38 |
| XENP 23072 H1_L1.9 (antibody, human IgG1, kappa, V domains shown, VH WT, VL mutation (Kabat) N30Y; also called [GPC3]H1_L1.9; VL N30Y; copies: 2 + 2) VH: QVQLVQSGAEVKKPGASVKVSCKASGYTFTDYEMHWVRQAPGQGLEWMGALDPKTGDTAYSQKFQGRVTMTADKSISTAYMELSRLRSDDTAVYYCTRFYSYTYWGQGTLVTVSS VL: DVVMTQSPLSLPVTLGQPASISCRSSQSLVHSNGYTYLHWYQQRPGQSPRLLIYKVSNRFSGVPDRFSGSGSGTDFTLKISRVEAEDVGVYFCSQNTHVPPTFGSGTKLEIKR | 1.37 |
| XENP 23063 H1.4_L1 (antibody, human IgG1, kappa, V domains shown, VH mutation (Kabat) D52S, VL WT; also called [GPC3]H1.4_L1; VH D52S; copies: 2 + 2) VH: QVQLVQSGAEVKKPGASVKVSCKASGYTFTDYEMHWVRQAPGQGLEWMGALSPKTGDTAYSQKFQGRVTMTADKSISTAYMELSRLRSDDTAVYYCTRFYSYTYWGQGTLVTVSS VL: DVVMTQSPLSLPVTLGQPASISCRSSQSLVHSNGNTYLHWYQQRPGQSPRLLIYKVSNRFSGVPDRFSGSGSGTDFTLKISRVEAEDVGVYFCSQNTHVPPTFGSGTKLEIKR | 3.62 |
| XENP 23067 H1_L1.4 (antibody, human IgG1, kappa, V domains shown, VH WT, VL mutation (Kabat) N28H; also called [GPC3]H1_L1.4; VL N28H) VH: QVQLVQSGAEVKKPGASVKVSCKASGYTFTDYEMHWVRQAPGQGLEWMGALDPKTGDTAYSQKFQGRVTMTADKSISTAYMELSRLRSDDTAVYYCTRFYSYTYWGQGTLVTVSS VL: DVVMTQSPLSLPVTLGQPASISCRSSQSLVHSHGNTYLHWYQQRPGQSPRLLIYKVSNRFSGVPDRFSGSGSGTDFTLKISRVEAEDVGVYFCSQNTHVPPTFGSGTKLEIKR | 11.7 |
| XENP 23066 H1_L1.3 (antibody, human IgG1, kappa, V domains shown, VH WT, VL mutation (Kabat) N28S; also called [GPC3]H1_L1.3; VL N28S; copies: 2 + 2) VH: QVQLVQSGAEVKKPGASVKVSCKASGYTFTDYEMHWVRQAPGQGLEWMGALDPKTGDTAYSQKFQGRVTMTADKSISTAYMELSRLRSDDTAVYYCTRFYSYTYWGQGTLVTVSS VL: DVVMTQSPLSLPVTLGQPASISCRSSQSLVHSSGNTYLHWYQQRPGQSPRLLIYKVSNRFSGVPDRFSGSGSGTDFTLKISRVEAEDVGVYFCSQNTHVPPTFGSGTKLEIKR | 12.7 |
| XENP 23071 H1_L1.8 (antibody, human IgG1, kappa, V domains shown, VH WT, VL mutation (Kabat) N30Q; also called [GPC3]H1_L1.8; VL N30Q; copies: 2 + 2) VH: QVQLVQSGAEVKKPGASVKVSCKASGYTFTDYEMHWVRQAPGQGLEWMGALDPKTGDTAYSQKFQGRVTMTADKSISTAYMELSRLRSDDTAVYYCTRFYSYTYWGQGTLVTVSS VL: DVVMTQSPLSLPVTLGQPASISCRSSQSLVHSNGQTYLHWYQQRPGQSPRLLIYKVSNRFSGVPDRFSGSGSGTDFTLKISRVEAEDVGVYFCSQNTHVPPTFGSGTKLEIKR | 2.35 |
| XENP 23068 H1_L1.5 (antibody, human IgG1, kappa, V domains shown, VH WT, VL mutation (Kabat) G29A; also called [GPC3]H1_L1.5; VL G29A; copies: 2 + 2) VH: QVQLVQSGAEVKKPGASVKVSCKASGYTFTDYEMHWVRQAPGQGLEWMGALDPKTGDTAYSQKFQGRVTMTADKSISTAYMELSRLRSDDTAVYYCTRFYSYTYWGQGTLVTVSS VL: DVVMTQSPLSLPVTLGQPASISCRSSQSLVHSNANTYLHWYQQRPGQSPRLLIYKVSNRFSGVPDRFSGSGSGTDFTLKISRVEAEDVGVYFCSQNTHVPPTFGSGTKLEIKR | 2.09 |
| XENP 23070 H1_L1.7 (antibody, human IgG1, kappa, V domains shown, VH WT, VL mutation (Kabat) G29K; also called [GPC3]H1_L1.7; VL G29K; copies: 2 + 2) VH: QVQLVQSGAEVKKPGASVKVSCKASGYTFTDYEMHWVRQAPGQGLEWMGALDPKTGDTAYSQKFQGRVTMTADKSISTAYMELSRLRSDDTAVYYCTRFYSYTYWGQGTLVTVSS VL: DVVMTQSPLSLPVTLGQPASISCRSSQSLVHSNKNTYLHWYQQRPGQSPRLLIYKVSNRFSGVPDRFSGSGSGTDFTLKISRVEAEDVGVYFCSQNTHVPPTFGSGTKLEIKR | 2.22 |
| XENP 23061 H1.2_L1 (antibody, human IgG1, kappa, V domains shown, VH mutation (Kabat) D52N, VL WT; also called [GPC3]H1.2_L1; VH D52N; copies: 2 + 2) VH: QVQLVQSGAEVKKPGASVKVSCKASGYTFTDYEMHWVRQAPGQGLEWMGALNPKTGDTAYSQKFQGRVTMTADKSISTAYMELSRLRSDDTAVYYCTRFYSYTYWGQGTLVTVSS VL: DVVMTQSPLSLPVTLGQPASISCRSSQSLVHSNGNTYLHWYQQRPGQSPRLLIYKVSNRFSGVPDRFSGSGSGTDFTLKISRVEAEDVGVYFCSQNTHVPPTFGSGTKLEIKR | 5.81 |
| XENP 23062 H1.3_L1 (antibody, human IgG1, kappa, V domains shown, VH mutation (Kabat) D52Q, VL WT; also called [GPC3]H1.3_L1; VH D52Q; copies: 2 + 2) VH: QVQLVQSGAEVKKPGASVKVSCKASGYTFTDYEMHWVRQAPGQGLEWMGALQPKTGDTAYSQKFQGRVTMTADKSISTAYMELSRLRSDDTAVYYCTRFYSYTYWGQGTLVTVSS VL: DVVMTQSPLSLPVTLGQPASISCRSSQSLVHSNGNTYLHWYQQRPGQSPRLLIYKVSNRFSGVPDRFSGSGSGTDFTLKISRVEAEDVGVYFCSQNTHVPPTFGSGTKLEIKR | 3.13 |
| XENP 23065 H1_L1.2 (antibody, human IgG1, kappa, V domains shown, VH WT, VL mutation (Kabat) N28Y; also called [GPC3]H1_L1.2; VL N28Y; copies: 2 + 2) VH: QVQLVQSGAEVKKPGASVKVSCKASGYTFTDYEMHWVRQAPGQGLEWMGALDPKTGDTAYSQKFQGRVTMTADKSISTAYMELSRLRSDDTAVYYCTRFYSYTYWGQGTLVTVSS VL: DVVMTQSPLSLPVTLGQPASISCRSSQSLVHSYGNTYLHWYQQRPGQSPRLLIYKVSNRFSGVPDRFSGSGSGTDFTLKISRVEAEDVGVYFCSQNTHVPPTFGSGTKLEIKR | 7.43 |

— US20240034815A1 (Xencor, published 2024)
